According to the nanobody polyreactivity screen of Harvey et al. (2022):

Test: yeast display, Sf9 membrane polyspecificity reagent, FACS + sequencing; frameworks hold sequencing errors
Outline: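 Genes from sorted yeast were amplified by colony PCR, read by MiSeq 2 × 250 sequencing and filtered on CDR length. These cells carried a synthetic nanobody library in Saccharomyces cerevisiae BJ5465 and were sorted by FACS into low and high (top ~1%) gates on anti-HA and streptavidin fluorescence. Polyreactivity is labelled according to the gate of origin.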
In the case of “QVQLVESGGCLVQAVGSLRLSCAASAFTFTQYGRGWYRQASGKEREFVATIRFSGDTTYYADSVKRRFTITRDHAKNTAYLQMNRLKPEDPAVYYCNADNRAFFVYPGSNRYDSWGQGTQVTVSS”, the “polyreactivity (PSR sort gate)” value is reported as “low polyreactivity”. With “QVQLVESGGGLVQAGGSLRLSCAASGSIFEPYAMGWYRQAPGKERELVAGIRKSGATTYYADSVKGRFTISRDNAKNTVYLQMNSLKPEDSAVYYCNAVVKSSSRGSISHPGYDYWGQGTQVTVSS” the “polyreactivity (PSR sort gate)” value was “high polyreactivity”. With “QVQLVESGGGLVQAGDSLRLSCAASGLTFSAYVMGWYRQAPGKERELVAATSRRGGTTYYADSVKGRFTISRDNAKITVYLQMNSLKPEDTAVYYCGTDYTSGSSYHVGYCGQGTQVTVSS” the “polyreactivity (PSR sort gate)” value was “high polyreactivity”. For “QVQLVESGGGLVQAGGSLRLSCAASGRIFPYMGWYRQAPGKERELVAAINASGGRTYYADSVKGRFTISRDNAKNTVYLQMNSLKPEDTAVYYCNAVWSSDTYTHPQYDYWGQGTQVTVSS”, the “polyreactivity (PSR sort gate)” value was “high polyreactivity”. For “QVQLVESGGALVQAGGSLRLSCAASGFTFNVYAMGWYRPAPGKERELVAAITSSGGSTYYADSVKGRFTISRDNAKNTVYLQMNSLIPDDTAVYYCNVVRDWLLYRGSYIVKFDYWGQGTQVTVSS”, the “polyreactivity (PSR sort gate)” value was “high polyreactivity”. With “QVQLVESGGGLVQAGGSLRLSCAASGSTFQFYAMRWYRQAPGKERDLVAAIRSSDDSTYYADSVKGRFTISRDNAKNTVYLQMKSLKPEDTAVYYCAAVLDFYGVWYDYWGQGTQVTVSS” the “polyreactivity (PSR sort gate)” value was “high polyreactivity”. In the case of “QVQLVESGGGLVQSGGSLRLSCAASGRTFYYYTMGWYRPAPGKVRELVAAIYRVGSTYYADSVKGRFTISRDNAKNTVYLQMNSLKPEDTADYYCNAVLRFGWYWVDYWGQGTQVTVSS”, the “polyreactivity (PSR sort gate)” value is reported as “high polyreactivity”. For “QVQLVESGGCLVQAGGSLRLSCAASGSSFTSNSMGWSRHAPGKERELVAAISSCGGSTYYADSVKGRFTISRDNATQTVYIQMNSLKPEDTAVYYCAADVHWPYRYDYWGQGTQVTVSS”, the “polyreactivity (PSR sort gate)” value was “low polyreactivity”. In the case of “QVQLVESGGGLVQAGGSLRLSCAASGRTFWSYAMGWYRQAPGKERELVAAINSGGSTYYADSVKGRFTISRDNAKNTVYLQMNSLKPEDTAVYYFAADTWYGFDWGQGTQVTVSS”, the “polyreactivity (PSR sort gate)” value is reported as “high polyreactivity”. With “QVQLVESGGGLVQAGGRLRLSSAASGRIFHSYAMGWYRQAPGKDRELVAGITSRGGTYYADSVKGRFTISRDNAKNTVYLQMNSLKPEDTAVYYCNADQALYSSGNKYDYWGQGTQVTVSS” the “polyreactivity (PSR sort gate)” value was “low polyreactivity”. In the case of “QLQLVESGGGLVQAGGSLRLICADSGRTFPSNTMGWYRQAPGKERELVAAITNSGGSTYYADSVKGRFTISRDNAKNTVYLQMNSLKPEDTAVYYCAKVVGAPYVEYDYWGQGTQVSVSS”, the “polyreactivity (PSR sort gate)” value is reported as “low polyreactivity”. In the case of “QVQLVESGGGLVQAGGSLRLSGSASGRTFSQYVMRWYRQAPGQERELVAAISKRGGRTYYADSVQGRFTISRDNAKNTVYLQMNSLNPEDTAVYYCNDVYRYYPFDYWGQGTQVTVSS”, the “polyreactivity (PSR sort gate)” value is reported as “high polyreactivity”. In the case of “QVQLVESGGGLVQAGGSLRLSCAASGRIFGRYAMGWYRQAPGKERELVAGITGSSGTTYYADSVKGRFTISLDNAKNTVYLQMNSLKPEDTAVYYCAVETYWHARSHDYWGQGTQVTVSS”, the “polyreactivity (PSR sort gate)” value is reported as “low polyreactivity”. With “QVQIVESGRGLVQAGGSLRLSCAPSGRIFIYNAMGWYIQAPGKERELVAAISWRGGRTYYADSVKGRFTISRDNAKNTVYLQMNRLKPEDTAVYYCNAEPYGYERLYDYWGQGTQVNVSS” the “polyreactivity (PSR sort gate)” value was “high polyreactivity”. With “QVQLVESGGGLVQAGGSLRLSCAASGRIFTANVMGWYRQAPGKERELVAAIDYSGGSTYYADSVKGRFTISRDNAKNTVYLQMNSLKPEDTAVYYCNRDDYADYYHLEYDYWGQGTQVTVSS” the “polyreactivity (PSR sort gate)” value was “low polyreactivity”. For “QVQLVESGGGLVQAGGSLRLSCAASGNTFGRYAMGWYRQAPGKERELVAAITKRGGTTYYADSVKGRFTISRDYAKNTVYLQMNSLKPEDTAVYDCAAKRSVLRTADYDYWGQGTQVTVSS”, the “polyreactivity (PSR sort gate)” value was “high polyreactivity”. In the case of “QVQLQVSGGGLVQAGGNLRLSCASSCTISESFGMGWNRQAPGKEREFVAGITMGGITNYADSVRGRFTISRDNAKNMYLQMNSLKPEDTAVYYCEVDDYRYINYEFWGQGTQVSVSS”, the “polyreactivity (PSR sort gate)” value is reported as “high polyreactivity”. With “QFQLVESRGGLVQAGGSLRLSCAASGFIFTHYAMGWYRQAPGKERELVAAITRRGGDTHYADSVKGRFTISRDNPKNTVYLQMNSLKPEDTAVYYSNAKRYSWGYYPAFDYWGHGTQVTVSS” the “polyreactivity (PSR sort gate)” value was “high polyreactivity”. With “QVQLVESGGGLFQAGGSLRLSCAASGLIIAYYAMRWYRQAPGKERELVAAISSVGSTYYADSVNGRFTISRDNAKNTVYLQMNSLKPEDTAVYYCAAAPRGGMYYWGQGTQVTVSS” the “polyreactivity (PSR sort gate)” value was “high polyreactivity”. With “QVQLVESGGGLVQAGGSLRLSCAASGSIFIDNAMGWYRQAPGKEREFVAAISKSGTSTYYADSVKGRFTISRDNAKNTVYLQMNSLKPEDTAVYYCAVRRPRPYSNYYYWGQGTQVTVSS” the “polyreactivity (PSR sort gate)” value was “high polyreactivity”. For “QVQLVESGGGLVQAGGSLRLSCAASGFTFLRYAMGWYRQAPGKERELVAAITGSGGSTYYADSVKGRFTISRDNAKNTVYLQMNSLKPEDTAVYYCSIVSKFTGDYGYWGQGTQVTVSS”, the “polyreactivity (PSR sort gate)” value was “high polyreactivity”. For “LLQLVESVGGLVQAGGTLRLSCAASRSTFHANTLGGYRKAPGKERELVAAISIRGANTYYADSVKGRLTISSDNAKNTVYLQMNSLKREDTAVYYCATRVRKYSLRLDYWGQGTQVTVSS”, the “polyreactivity (PSR sort gate)” value was “high polyreactivity”. For “QVQLVESGGGLVQAGGSLRLSCAASGRTFGYNTMGWYRQAPGKERELVATIRTNGVSTYYADSVKGRFTISRDNAKNTVYLQMNSLKPEDTAVYYCNAPRTRKQKTIYVNAPGNYWGQGTQVTVSS”, the “polyreactivity (PSR sort gate)” value was “low polyreactivity”. For “QVQLVESGGGLVQAGGSLRLSCAASGRTFGLNVMGWYRQAPGKERELVAAISRSGGSTYYADSVKGRFTISRDNAKNTVYLQMNSLKPEDTAVYYCAAVSRYYPYGYWGQGTQVTVSS”, the “polyreactivity (PSR sort gate)” value was “high polyreactivity”. For “QVQLVESGGGLVQAGGSLSLSCAASGSTFVWYAMGWYRQAPGTERELVATITYGGGSTNYADSVKGRFTISRDNAKNTVYLQMNSLKPEDTAVYYCNADTYFESGYWGQGTLVTVSS”, the “polyreactivity (PSR sort gate)” value was “low polyreactivity”. For “QVQLVESGGGLVQAGGSLRLSCAASGSTFPKNAMGWTIQAPGKERELVADINTGGSTYYADSVKGRFTISRDNAKNTVYLQMNSLIPEDTAVYYCNTQSFYFVSYSSSRYLRYYWGQVTQVTVSS”, the “polyreactivity (PSR sort gate)” value was “low polyreactivity”. For “QVQLVESVGGLVQAGGSLRLSCAASGFIFSYYAMGGYRQAPGKERELVAAISKTGGNTYYADSVKGRFTISRDNAKNTVYLQMNSLKPEDSAVYYCNALRGDWRDMGYWGQGTQVTVSS”, the “polyreactivity (PSR sort gate)” value was “high polyreactivity”. In the case of “QVQLVESGGGLVQAGGSLRLSCAASGRTFVYYAMGWYRQAPGKERELVASISSNGGTYYADSVKGRFTISRDNAKNTVYLQMNSLKPEDTAVYYCNAKRVARYQYGASYNYWGQGTQVTVSS”, the “polyreactivity (PSR sort gate)” value is reported as “high polyreactivity”. With “QVQLVESGVGLVQAGGSLRLSCAASGITFSYYAMGWYRQAPGKERELVAAISGSGTSTYYADSVKGRFTISRDNAKNTVYLQMNSLKPEDTAVYYCAAGPPRKPGYYYWGQGTQVTVSS” the “polyreactivity (PSR sort gate)” value was “high polyreactivity”. With “QVQLQESGGGLVQAGGSLCMSCAASGSISDYIFMGWYRQAPGKEREFVAGIGIGGNTNYADSVKGRFTISRDNAKNTVYLQMNSLKPEDTAVYYCAANATYTDYYAYWGQGTKVTVSS” the “polyreactivity (PSR sort gate)” value was “low polyreactivity”. With “QVQLVESGGGLVHAGGSLRLSCAASGSTFVEYVMGWYRQAPGKERELVASIDVGTTSTRYADSVKGRFTISRDNAKNTVYLQMNSLKPEDTAVYYCNADGYYSGYWTNYDYWGQGTQVTVSS” the “polyreactivity (PSR sort gate)” value was “low polyreactivity”. In the case of “QVQLVESGGGLVQAGGSLRLSCAASGIIFIFYDMGWSRQAPGKERELVATITSGTNTYADSVKGRFTISRDNAKNTVYLQMNSLKPEDTAVYSCAAGFSPASQLDYWGQGTQVTVSS”, the “polyreactivity (PSR sort gate)” value is reported as “low polyreactivity”. For “QVQLVESGGGLVQAGGSLRLSCAASGSIFFAYAMGWYRQAPGKERELVAAIRSGVRTNYADSVKGRFTISRDNAKNTVYIQMNSLKPEDTAVYYCNTDLSKFGHRVSLSGYDYWGQGTQVNVSS”, the “polyreactivity (PSR sort gate)” value was “low polyreactivity”. With “QVHLVESGGGLVQAGGSLRLSCAASGGIFYTYAMGWYRQAPGKEREMVAAISWRGGSTYYADSVKGRFTISRDNAKNTVYLQMNSLNPEDSAVYYCNKVTDYYYQIYWSYPYFTPDYFWGQGTQVTVSS” the “polyreactivity (PSR sort gate)” value was “high polyreactivity”. With “QFQLVESGGGLVQAGGSLRLSCAASGSSFTVYAMGWYRQAPGKETELVAAISYVGGSTYYAASVKGRFTISRDNAKNTVYLQMNSLKPEDTAVYYCAADPYYSYGYYHAHGRDVGYWGQGTQVTVSS” the “polyreactivity (PSR sort gate)” value was “low polyreactivity”. For “QVQLVESGGGLVQAGGSLRLSCAASGSIFSANAMGWYRQAPGKERELVAAISDGGAATYYADSVKGRFTISRDNAKHTVYLQMNSLKPEDTAVYYCIADDAFWTVVDGNWRYEYDYWGQGTQVTVSS”, the “polyreactivity (PSR sort gate)” value was “low polyreactivity”. For “QVQLVESGGGLVQAGGRLRLSCAPSGNIFRYYVMGWYRPAPGKEREFLAAITSSGGSTYYADSVKGRFTISRDNAKNTVYLKINSLKPEDTEVYYCAKDYWDPGWAEYDYWGQGTQVTVSS”, the “polyreactivity (PSR sort gate)” value was “low polyreactivity”. With “QVQLVESGGGLVQAGGSLRLSCAASGITFTFNAMGWYRQAPGKERELVAAISSTTSTKYADSVKGRFTISRDNAKTTVYLQMNSLKPEDTAVYYCARTYWLRYYGYRDDEYDYWGQGTQVTVSS” the “polyreactivity (PSR sort gate)” value was “low polyreactivity”. In the case of “QVQLVESGGGLVQAGGSLLLSCAASGITFGVYAMGWYRQAPGKERELVAAISVNGGSTYYADSVKGRFTISRDNAKNTVYLQMNSLNPQDTAVYSCAADVLYYIDDDSIIEYDYWGQGTQVTVSS”, the “polyreactivity (PSR sort gate)” value is reported as “low polyreactivity”. With “QVQLVESGGGLVQAGGSLRLSCAASGIIFRDYAMGWYRQAPGKERELVAAINLDGTSTYYADSVKGRFTISRDNAKKTVYLQMNSLKPEDTAVYYCAAEYDNADYINYFLDMYYWGQGTQVTVSS” the “polyreactivity (PSR sort gate)” value was “low polyreactivity”. With “QVQLVESGGGLVQAGGSLRLSCAASGSIFGPYAMGWYRQAPGKERELVAAISKGGGSTYYADSVKGRFTISRDNAKNTVYLQMNSLKPDDTAVYYCAADQDKPYDHWGQGTQVTVSS” the “polyreactivity (PSR sort gate)” value was “low polyreactivity”. With “QVQLVESVGGLVQAGGSLRLSCAASGRIFGGYALGWYRQAPGKERELVAAITSSGSTNYADSVKGRFTISRDNAMNTVYLQMNSLKQEDTAVYYCANDFKTVYYWWGMDYWGQGTQVTVSS” the “polyreactivity (PSR sort gate)” value was “low polyreactivity”. With “QVQLVESGGGLVQAGGSLRLSCAASGRTFGGYAMGWYRQAPGKERELVAAISYSGGSTYYADSVKGRFTISRDNAKNTVYLQMNSLKPEDTAVYYCAADGYDAYYWGQGTQVTVSS” the “polyreactivity (PSR sort gate)” value was “low polyreactivity”.
